The values that follow come from the Human Domainome abundance scans (Beltran et al. 2025).

± gives the uncertainty stated by the source.

B1: POU domain, class 3, transcription factor 2, residues 356 to 411; numbered along this chain, P20265 (parent)
chain: KKRTSIEVSVKGALESHFLKCPKPSAQEITSLADSLQLEKEVVRVWFCNRRQKEKR

In the data set the parent is B1. The data set can be described thus: abundance fitness (aPCA) (normalised: wild type 0, dead -1); higher = more abundant; growth selection in yeast, the domain comes from the species named. Particulars: Homo sapiens.
Turning to TKRTSIEVSVKGALESHFLKCPKPSAQEITSLADSLQLEKEVVRVWFCNRRQKEKR [K1T], the abundance fitness was -0.206 ± 0.14.

For the variant YKRTSIEVSVKGALESHFLKCPKPSAQEITSLADSLQLEKEVVRVWFCNRRQKEKR [K1Y], the abundance fitness is -0.382 ± 0.44.

RKRTSIEVSVKGALESHFLKCPKPSAQEITSLADSLQLEKEVVRVWFCNRRQKEKR [K1R]: the abundance fitness was -0.302 ± 0.17.

On to MKRTSIEVSVKGALESHFLKCPKPSAQEITSLADSLQLEKEVVRVWFCNRRQKEKR [K1M], for which the abundance fitness was -0.244 ± 0.24.

With IKRTSIEVSVKGALESHFLKCPKPSAQEITSLADSLQLEKEVVRVWFCNRRQKEKR [K1I], the abundance fitness is -0.397 ± 0.22.

For VKRTSIEVSVKGALESHFLKCPKPSAQEITSLADSLQLEKEVVRVWFCNRRQKEKR [K1V], the abundance fitness is -0.072 ± 0.28.

In the case of LKRTSIEVSVKGALESHFLKCPKPSAQEITSLADSLQLEKEVVRVWFCNRRQKEKR [K1L], the abundance fitness was -0.498 ± 0.46.

On to SKRTSIEVSVKGALESHFLKCPKPSAQEITSLADSLQLEKEVVRVWFCNRRQKEKR [K1S], for which the abundance fitness was -0.273 ± 0.15.

As to NKRTSIEVSVKGALESHFLKCPKPSAQEITSLADSLQLEKEVVRVWFCNRRQKEKR [K1N], the abundance fitness is -0.012 ± 0.2.

As to KKRCSIEVSVKGALESHFLKCPKPSAQEITSLADSLQLEKEVVRVWFCNRRQKEKR [T4C], the abundance fitness was -0.287 ± 0.15.

For the variant KKRESIEVSVKGALESHFLKCPKPSAQEITSLADSLQLEKEVVRVWFCNRRQKEKR [T4E], the abundance fitness was found to be 0.17 ± 0.18.

On to KKRDSIEVSVKGALESHFLKCPKPSAQEITSLADSLQLEKEVVRVWFCNRRQKEKR [T4D], for which the abundance fitness turned out to be 0.023 ± 0.16.

On to KLRTSIEVSVKGALESHFLKCPKPSAQEITSLADSLQLEKEVVRVWFCNRRQKEKR [K2L], for which the abundance fitness is -0.222 ± 0.12.

For the variant KCRTSIEVSVKGALESHFLKCPKPSAQEITSLADSLQLEKEVVRVWFCNRRQKEKR [K2C], the abundance fitness was -0.395 ± 0.2.

Consider KNRTSIEVSVKGALESHFLKCPKPSAQEITSLADSLQLEKEVVRVWFCNRRQKEKR [K2N], for which the abundance fitness is -0.339 ± 0.2.

Regarding KMRTSIEVSVKGALESHFLKCPKPSAQEITSLADSLQLEKEVVRVWFCNRRQKEKR [K2M], the abundance fitness is -0.072 ± 0.13.

As for KGRTSIEVSVKGALESHFLKCPKPSAQEITSLADSLQLEKEVVRVWFCNRRQKEKR [K2G], the abundance fitness was -0.087 ± 0.1.

As for KYRTSIEVSVKGALESHFLKCPKPSAQEITSLADSLQLEKEVVRVWFCNRRQKEKR [K2Y], the abundance fitness is -0.06 ± 0.28.

For KERTSIEVSVKGALESHFLKCPKPSAQEITSLADSLQLEKEVVRVWFCNRRQKEKR [K2E], the abundance fitness is -0.07 ± 0.18.

In the case of KFRTSIEVSVKGALESHFLKCPKPSAQEITSLADSLQLEKEVVRVWFCNRRQKEKR [K2F], the abundance fitness is -0.199 ± 0.2.

Consider KWRTSIEVSVKGALESHFLKCPKPSAQEITSLADSLQLEKEVVRVWFCNRRQKEKR [K2W], for which the abundance fitness was -0.246 ± 0.13.

Regarding KARTSIEVSVKGALESHFLKCPKPSAQEITSLADSLQLEKEVVRVWFCNRRQKEKR [K2A], the abundance fitness was -0.154 ± 0.15.

Regarding KDRTSIEVSVKGALESHFLKCPKPSAQEITSLADSLQLEKEVVRVWFCNRRQKEKR [K2D], the abundance fitness was determined as 0.028 ± 0.18.

KVRTSIEVSVKGALESHFLKCPKPSAQEITSLADSLQLEKEVVRVWFCNRRQKEKR [K2V]: the abundance fitness was -0.119 ± 0.12.

As for KIRTSIEVSVKGALESHFLKCPKPSAQEITSLADSLQLEKEVVRVWFCNRRQKEKR [K2I], the abundance fitness was -0.207 ± 0.21.

For KHRTSIEVSVKGALESHFLKCPKPSAQEITSLADSLQLEKEVVRVWFCNRRQKEKR [K2H], the abundance fitness is -0.335 ± 0.47.

Take KQRTSIEVSVKGALESHFLKCPKPSAQEITSLADSLQLEKEVVRVWFCNRRQKEKR [K2Q]: the abundance fitness was -0.068 ± 0.17.

Consider KRRTSIEVSVKGALESHFLKCPKPSAQEITSLADSLQLEKEVVRVWFCNRRQKEKR [K2R], for which the abundance fitness was -0.166 ± 0.099.

For KPRTSIEVSVKGALESHFLKCPKPSAQEITSLADSLQLEKEVVRVWFCNRRQKEKR [K2P], the abundance fitness was -0.525 ± 0.24.

Turning to KTRTSIEVSVKGALESHFLKCPKPSAQEITSLADSLQLEKEVVRVWFCNRRQKEKR [K2T], the abundance fitness was -0.21 ± 0.14.

For the variant KSRTSIEVSVKGALESHFLKCPKPSAQEITSLADSLQLEKEVVRVWFCNRRQKEKR [K2S], the abundance fitness is -0.18 ± 0.12.

KKTTSIEVSVKGALESHFLKCPKPSAQEITSLADSLQLEKEVVRVWFCNRRQKEKR [R3T]: the abundance fitness was -0.009 ± 0.11.

For the variant KKSTSIEVSVKGALESHFLKCPKPSAQEITSLADSLQLEKEVVRVWFCNRRQKEKR [R3S], the abundance fitness is 0.023 ± 0.1.

Regarding KKHTSIEVSVKGALESHFLKCPKPSAQEITSLADSLQLEKEVVRVWFCNRRQKEKR [R3H], the abundance fitness is 0.002 ± 0.11.

In the case of KKFTSIEVSVKGALESHFLKCPKPSAQEITSLADSLQLEKEVVRVWFCNRRQKEKR [R3F], the abundance fitness is -0.021 ± 0.13.

In the case of KKYTSIEVSVKGALESHFLKCPKPSAQEITSLADSLQLEKEVVRVWFCNRRQKEKR [R3Y], the abundance fitness turned out to be 0.026 ± 0.18.

As for KKVTSIEVSVKGALESHFLKCPKPSAQEITSLADSLQLEKEVVRVWFCNRRQKEKR [R3V], the abundance fitness is 0.051 ± 0.091.

In the case of KKMTSIEVSVKGALESHFLKCPKPSAQEITSLADSLQLEKEVVRVWFCNRRQKEKR [R3M], the abundance fitness amounted to 0.031 ± 0.11.

With KKATSIEVSVKGALESHFLKCPKPSAQEITSLADSLQLEKEVVRVWFCNRRQKEKR [R3A], the abundance fitness is -0.168 ± 0.082.

KKNTSIEVSVKGALESHFLKCPKPSAQEITSLADSLQLEKEVVRVWFCNRRQKEKR [R3N]: the abundance fitness amounted to 0.13 ± 0.16.

Consider KKGTSIEVSVKGALESHFLKCPKPSAQEITSLADSLQLEKEVVRVWFCNRRQKEKR [R3G], for which the abundance fitness was 0.092 ± 0.08.

KKCTSIEVSVKGALESHFLKCPKPSAQEITSLADSLQLEKEVVRVWFCNRRQKEKR [R3C]: the abundance fitness was 0.246 ± 0.12.

For the variant KKPTSIEVSVKGALESHFLKCPKPSAQEITSLADSLQLEKEVVRVWFCNRRQKEKR [R3P], the abundance fitness was -0.134 ± 0.15.

Consider KKLTSIEVSVKGALESHFLKCPKPSAQEITSLADSLQLEKEVVRVWFCNRRQKEKR [R3L], for which the abundance fitness came out at 0.01 ± 0.087.

Regarding KKWTSIEVSVKGALESHFLKCPKPSAQEITSLADSLQLEKEVVRVWFCNRRQKEKR [R3W], the abundance fitness is -0.273 ± 0.15.

For KKITSIEVSVKGALESHFLKCPKPSAQEITSLADSLQLEKEVVRVWFCNRRQKEKR [R3I], the abundance fitness came to 0.045 ± 0.15.

In the case of KKKTSIEVSVKGALESHFLKCPKPSAQEITSLADSLQLEKEVVRVWFCNRRQKEKR [R3K], the abundance fitness was 0.054 ± 0.21.
